# Measurements as given in IntAct's records for PubMed 35512704.
# B1: Speckle-type POZ protein (Homo sapiens), O43791 (parent)
# chain: MSRVPSPPPPAEMSSGPVAESWCYTQIKVVKFSYMWTINNFSFCREEMGEVIKSSTFSSGANDKLKWCLRVNPKGLDEESKDYLSLYLLLVSCPKSEVRAKFKFSILNAKGEETKAMESQRAYRFVQGKDWGFKKFIRRDFLLDEANGLLPDDKLTLFCEVSVVQDSVNISGQNTMNMVKVPECRLADELGGLWENSRFTDCCLCVAGQEFQAHKAILAARSPVFSAMFEHEMEESKKNRVEINDVEPEVFKEMMCFIYTGKAPNLDKMADDLLAAADKYALERLKVMCEDALCSNLSVENAAEILILADLHSADQLKTQAVDFINYHASDVLETSGWKSMVVSHPHLVAEAYRSLASAQCPFLGPPRKRLKQS
# partner: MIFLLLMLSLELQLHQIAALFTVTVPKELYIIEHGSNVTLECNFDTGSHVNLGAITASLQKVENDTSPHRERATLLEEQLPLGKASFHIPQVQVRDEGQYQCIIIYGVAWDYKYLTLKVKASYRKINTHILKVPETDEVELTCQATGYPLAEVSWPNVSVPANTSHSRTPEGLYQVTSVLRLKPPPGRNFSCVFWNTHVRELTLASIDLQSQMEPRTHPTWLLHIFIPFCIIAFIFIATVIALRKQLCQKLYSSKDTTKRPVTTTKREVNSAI
# B2: Speckle-type POZ protein (Homo sapiens), O43791 (parent)
# chain: B1 chain
# partner: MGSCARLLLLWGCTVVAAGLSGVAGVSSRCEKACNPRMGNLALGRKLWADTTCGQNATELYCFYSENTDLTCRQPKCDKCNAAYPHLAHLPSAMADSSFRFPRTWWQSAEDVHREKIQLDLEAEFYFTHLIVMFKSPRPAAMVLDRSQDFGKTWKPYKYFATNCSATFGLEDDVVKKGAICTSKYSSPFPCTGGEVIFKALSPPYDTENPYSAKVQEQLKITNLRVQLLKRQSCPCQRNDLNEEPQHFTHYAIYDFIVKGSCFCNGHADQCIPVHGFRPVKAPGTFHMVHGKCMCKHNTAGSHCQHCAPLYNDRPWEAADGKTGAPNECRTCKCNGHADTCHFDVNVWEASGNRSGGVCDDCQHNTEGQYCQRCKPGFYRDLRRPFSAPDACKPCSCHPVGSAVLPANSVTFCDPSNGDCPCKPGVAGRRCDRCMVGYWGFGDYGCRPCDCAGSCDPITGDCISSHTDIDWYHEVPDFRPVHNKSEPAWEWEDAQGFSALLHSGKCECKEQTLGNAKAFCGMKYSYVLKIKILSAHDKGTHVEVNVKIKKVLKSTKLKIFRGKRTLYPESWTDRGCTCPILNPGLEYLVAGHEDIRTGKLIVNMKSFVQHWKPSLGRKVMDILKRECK
# B3: Speckle-type POZ protein (Homo sapiens), O43791 (parent)
# chain: B1 chain
# partner: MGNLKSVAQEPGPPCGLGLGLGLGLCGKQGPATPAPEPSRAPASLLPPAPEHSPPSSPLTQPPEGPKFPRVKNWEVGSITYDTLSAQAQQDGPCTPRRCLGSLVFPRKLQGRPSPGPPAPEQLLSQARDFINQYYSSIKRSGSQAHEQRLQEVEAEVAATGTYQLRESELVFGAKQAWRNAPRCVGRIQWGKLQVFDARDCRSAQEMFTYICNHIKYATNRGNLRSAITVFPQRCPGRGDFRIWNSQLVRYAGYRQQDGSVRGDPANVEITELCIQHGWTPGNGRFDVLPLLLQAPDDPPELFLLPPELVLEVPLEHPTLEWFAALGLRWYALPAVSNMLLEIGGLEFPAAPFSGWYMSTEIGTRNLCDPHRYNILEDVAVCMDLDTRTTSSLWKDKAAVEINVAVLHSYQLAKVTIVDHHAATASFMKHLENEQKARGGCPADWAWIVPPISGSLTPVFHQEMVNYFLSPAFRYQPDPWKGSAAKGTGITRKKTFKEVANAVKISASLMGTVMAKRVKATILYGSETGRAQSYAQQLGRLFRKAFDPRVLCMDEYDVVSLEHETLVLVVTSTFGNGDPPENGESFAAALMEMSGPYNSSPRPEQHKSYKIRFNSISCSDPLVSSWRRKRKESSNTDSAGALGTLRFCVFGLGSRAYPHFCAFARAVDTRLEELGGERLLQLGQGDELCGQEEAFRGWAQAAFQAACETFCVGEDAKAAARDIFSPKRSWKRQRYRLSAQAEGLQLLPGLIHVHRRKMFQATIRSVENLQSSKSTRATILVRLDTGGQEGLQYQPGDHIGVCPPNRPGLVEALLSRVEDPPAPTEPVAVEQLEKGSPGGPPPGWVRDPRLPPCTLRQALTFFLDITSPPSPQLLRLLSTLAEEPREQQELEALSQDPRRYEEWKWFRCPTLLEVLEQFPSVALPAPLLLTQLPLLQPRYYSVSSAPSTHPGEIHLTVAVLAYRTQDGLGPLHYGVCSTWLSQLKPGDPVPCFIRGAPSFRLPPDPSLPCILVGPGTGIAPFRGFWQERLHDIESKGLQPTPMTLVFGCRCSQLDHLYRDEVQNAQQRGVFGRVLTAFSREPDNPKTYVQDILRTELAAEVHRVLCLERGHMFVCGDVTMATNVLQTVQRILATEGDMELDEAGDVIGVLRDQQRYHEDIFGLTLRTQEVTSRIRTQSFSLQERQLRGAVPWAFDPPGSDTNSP
# Variants of: B1
# Conditions: with pd1l2_human PDCD1LG2, Q9BQ51
row,effect of a mutation on the interaction,Variant
1,with no effect,MSRVPSPPPPAEMSSGPVAESWCYTQIKVVKFSYMWTINNFSFCREEMGEVIKSSTFSSGANDKLKWCLRVNPKGLDEESKDYLSLYLLLVSCPKSEVRAKFKFSILNAKGEETKAMESQRAYRFVQGKDWGLKKFIRRDFLLDEANGLLPDDKLTLFCEVSVVQDSVNISGQNTMNMVKVPECRLADELGGLWENSRFTDCCLCVAGQEFQAHKAILAARSPVFSAMFEHEMEESKKNRVEINDVEPEVFKEMMCFIYTGKAPNLDKMADDLLAAADKYALERLKVMCEDALCSNLSVENAAEILILADLHSADQLKTQAVDFINYHASDVLETSGWKSMVVSHPHLVAEAYRSLASAQCPFLGPPRKRLKQS [F133L]

# Variants of: B2
# Conditions: with net4_human NTN4, Q9HB63
row,effect of a mutation on the interaction,Variant
1,with no effect,MSRVPSPPPPAEMSSGPVAESWCYTQIKVVKFSYMWTINNFSFCREEMGEVIKSSTFSSGANDKLKWCLRVNPKGLDEESKDYLSLYLLLVSCPKSEVRAKFKFSILNAKGEETKAMESQRAYRFVQGKDWGLKKFIRRDFLLDEANGLLPDDKLTLFCEVSVVQDSVNISGQNTMNMVKVPECRLADELGGLWENSRFTDCCLCVAGQEFQAHKAILAARSPVFSAMFEHEMEESKKNRVEINDVEPEVFKEMMCFIYTGKAPNLDKMADDLLAAADKYALERLKVMCEDALCSNLSVENAAEILILADLHSADQLKTQAVDFINYHASDVLETSGWKSMVVSHPHLVAEAYRSLASAQCPFLGPPRKRLKQS [F133L]

# Variants of: B2
# Conditions: with net4_human NTN4, Q9HB63
# Remark: another data set of the same source
row,effect of a mutation on the interaction,Variant
1,with no effect,MSRVPSPPPPAEMSSGPVAESWCYTQIKVVKFSYMWTINNFSFCREEMGEVIKSSTFSSGANDKLKWCLRVNPKGLDEESKDYLSLYLLLVSCPKSEVRAKFKFSILNAKGEETKAMESQRAYRFVQGKDWGVKKFIRRDFLLDEANGLLPDDKLTLFCEVSVVQDSVNISGQNTMNMVKVPECRLADELGGLWENSRFTDCCLCVAGQEFQAHKAILAARSPVFSAMFEHEMEESKKNRVEINDVEPEVFKEMMCFIYTGKAPNLDKMADDLLAAADKYALERLKVMCEDALCSNLSVENAAEILILADLHSADQLKTQAVDFINYHASDVLETSGWKSMVVSHPHLVAEAYRSLASAQCPFLGPPRKRLKQS [F133V]

# Variants of: B2
# Conditions: with net4_human NTN4, Q9HB63
# Remark: another data set of the same source
row,effect of a mutation on the interaction,Variant
1,with no effect,MSRVPSPPPPAEMSSGPVAESWCYTQIKVVKFSYMWTINNFSFCREEMGEVIKSSTFSSGANDKLKWCLRVNPKGLDEESKDYLSLCLLLVSCPKSEVRAKFKFSILNAKGEETKAMESQRAYRFVQGKDWGFKKFIRRDFLLDEANGLLPDDKLTLFCEVSVVQDSVNISGQNTMNMVKVPECRLADELGGLWENSRFTDCCLCVAGQEFQAHKAILAARSPVFSAMFEHEMEESKKNRVEINDVEPEVFKEMMCFIYTGKAPNLDKMADDLLAAADKYALERLKVMCEDALCSNLSVENAAEILILADLHSADQLKTQAVDFINYHASDVLETSGWKSMVVSHPHLVAEAYRSLASAQCPFLGPPRKRLKQS [Y87C]

# Variants of: B2
# Conditions: with net4_human NTN4, Q9HB63
# Remark: another data set of the same source
row,effect of a mutation on the interaction,Variant
1,with no effect,MSRVPSPPPPAEMSSGPVAESWCYTQIKVVKFSYMWTINNFSFCREEMGEVIKSSTFSSGANDKLKWCLRVNPKGLDEESKDYLSLYLLLVSCPKSEVRAKCKFSILNAKGEETKAMESQRAYRFVQGKDWGFKKFIRRDFLLDEANGLLPDDKLTLFCEVSVVQDSVNISGQNTMNMVKVPECRLADELGGLWENSRFTDCCLCVAGQEFQAHKAILAARSPVFSAMFEHEMEESKKNRVEINDVEPEVFKEMMCFIYTGKAPNLDKMADDLLAAADKYALERLKVMCEDALCSNLSVENAAEILILADLHSADQLKTQAVDFINYHASDVLETSGWKSMVVSHPHLVAEAYRSLASAQCPFLGPPRKRLKQS [F102C]

# Variants of: B3
# Conditions: with nos3_human NOS3, P29474
row,effect of a mutation on the interaction,Variant
1,with no effect,MSRVPSPPPPAEMSSGPVAESWCYTQIKVVKFSYMWTINNFSFCREEMGEVIKSSTFSSGANDKLKWCLRVNPKGLDEESKDYLSLCLLLVSCPKSEVRAKFKFSILNAKGEETKAMESQRAYRFVQGKDWGFKKFIRRDFLLDEANGLLPDDKLTLFCEVSVVQDSVNISGQNTMNMVKVPECRLADELGGLWENSRFTDCCLCVAGQEFQAHKAILAARSPVFSAMFEHEMEESKKNRVEINDVEPEVFKEMMCFIYTGKAPNLDKMADDLLAAADKYALERLKVMCEDALCSNLSVENAAEILILADLHSADQLKTQAVDFINYHASDVLETSGWKSMVVSHPHLVAEAYRSLASAQCPFLGPPRKRLKQS [Y87C]

# Variants of: B3
# Conditions: with nos3_human NOS3, P29474
# Remark: another data set of the same source
row,effect of a mutation on the interaction,Variant
1,with no effect,MSRVPSPPPPAEMSSGPVAESWCYTQIKVVKFSYMWTINNFSFCREEMGEVIKSSTFSSGANDKLKWCLRVNPKGLDEESKDYLSLYLLLVSCPKSEVRAKFKFSILNAKGEETKAMESQRAYRFVQGKDWGLKKFIRRDFLLDEANGLLPDDKLTLFCEVSVVQDSVNISGQNTMNMVKVPECRLADELGGLWENSRFTDCCLCVAGQEFQAHKAILAARSPVFSAMFEHEMEESKKNRVEINDVEPEVFKEMMCFIYTGKAPNLDKMADDLLAAADKYALERLKVMCEDALCSNLSVENAAEILILADLHSADQLKTQAVDFINYHASDVLETSGWKSMVVSHPHLVAEAYRSLASAQCPFLGPPRKRLKQS [F133L]

# Variants of: B3
# Conditions: with nos3_human NOS3, P29474
# Remark: another data set of the same source
row,effect of a mutation on the interaction,Variant
1,with no effect,MSRVPSPPPPAEMSSGPVAESWCYTQIKVVKFSYMWTINNFSFCREEMGEVIKSSTFSSGANDKLKWCLRVNPKGLDEESKDYLSLYLLLVSCPKSEVRAKFKFSILNAKGEETKAMESQRAYRFVQGKDWGVKKFIRRDFLLDEANGLLPDDKLTLFCEVSVVQDSVNISGQNTMNMVKVPECRLADELGGLWENSRFTDCCLCVAGQEFQAHKAILAARSPVFSAMFEHEMEESKKNRVEINDVEPEVFKEMMCFIYTGKAPNLDKMADDLLAAADKYALERLKVMCEDALCSNLSVENAAEILILADLHSADQLKTQAVDFINYHASDVLETSGWKSMVVSHPHLVAEAYRSLASAQCPFLGPPRKRLKQS [F133V]
